Assay [1] has as its target T1, full-length human PD1 on cells (CHO-K1 stably transfected with plasmid 15311_hPD1-fl_pUC_Neo) (human, UniProt Q15116 25-288). As to the kind of experiment: cell-based or functional assay.
Assay [2] concerns the target T1, full-length human PD1 on cells (CHO-K1 …). As to the kind of experiment: cell-based or functional assay. The source holds these as a separate data set.
Assay [3] has the same target. The assay can be described thus: cell-based or functional assay. This is another data set of the same source.
The target is the same in assay [4]. As to the kind of experiment: cell-based or functional assay. This is another data set of the same source.
Assay [5] deals with T2, biotinylated PD1-ECD-AviHis (human, UniProt Q15116 25-170, biotinylated, site not stated).
T2 construct: also called huPD1; hu PD1
As to the kind of experiment: ELISA on coated biotinylated PD1-ECD-AviHis. In general terms: In an ELISA, binding on a coated surface is turned into a signal by an enzyme label.

For assay [6], the target named is T2, biotinylated PD1-ECD-AviHis. As to the kind of experiment: ELISA on coated biotinylated PD1-ECD-AviHis. The source holds these as a separate data set.
In assay [7] the target is T3, biotinylated TIM3-ECD-AviHis (human, UniProt Q8TDQ0 22-202, biotinylated, site not stated).
T3 construct: also called huTIM3; Hu TIM3
As to the kind of experiment: ELISA on coated biotinylated TIM3-ECD-AviHis.

Assay [8] deals with T4, human PD1-ECD (human, UniProt Q15116 25-170).
T4 construct: SPR analyte; also called hu PD1-ECD
The assay can be described thus: SPR Biacore T200, Ab captured on anti-human IgG, 25 C. For orientation: Surface plasmon resonance follows binding to a sensor surface in real time, without labels.

The target of assay [9] is T5, Tim3-CLIP (on transiently transfected HEK293 cells) (human, CLIP-tag labelled with Clip-Red).
T5 construct: The plasmid encodes residues 1-202 including the signal peptide; also called CLIP-tagged TIM3
As to the kind of experiment: cell-based TR-FRET on SNAP-tagged PD1 / CLIP-tagged TIM3 HEK293 cells, 1 h at 4 C; signal needs both receptors bound at once.

In assay [10] the target is T4, human PD1-ECD. The assay can be described thus: SPR; row head 'Affinity KD 37°C [nM] *)', first of two values, footnote not explained; first of the two values in the cell; row head KD 37°C, footnote *) not given.
Assay [11] has as its target T2, biotinylated PD1-ECD-AviHis. As to the kind of experiment: ligand replacing ELISA on coated PD1-ECD-AviHis; row head 'IC50 PD-L1, 2', competitor not told apart; blocking of ligand binding; head says 'PD-L1, 2', competitor not told apart.
Assay [12] has as its target T4, human PD1-ECD. As to the kind of experiment: SPR; row head 'Affinity KD 37°C [nM] *)', second of two values (equals the 25 C value of Table 9); second of the two values in the cell; footnote *) not given, so the difference from the first value is not told.
In assay [13] the target is T6, Tim3-ECD-His-Biotin (human, UniProt Q8TDQ0 22-202, biotinylated with BirA Ligase, site not stated).
T6 construct: also called human Tim3 (ELISA); Biochem Human
As to the kind of experiment: ELISA on human Tim3.

In assay [14] the target is T7, full-length human Tim3 on cells (CHO-K1 stably transfected with plasmid 15312_hTIM3-fl_pUC_Neo) (human, UniProt Q8TDQ0 22-301).
T7 construct: Also used as the target of the MLR read-outs (native TIM-3); also called CHO-Tim3; CHO-TIM3
As to the kind of experiment: cellular ELISA on CHO-TIM3.

For assay [15], the target named is T8, monomeric human Tim3-ECD (human, UniProt Q8TDQ0 22-202).
T8 construct: SPR analyte; also called huTim3; hu Tim3-ECD
As to the kind of experiment: SPR, Ab captured, monomer Tim3.

In assay [16] the target is T9, huFc fused dimeric human Tim3-ECD (human, UniProt Q8TDQ0 22-202).
T9 construct: also called huTim3Fc; Fc-tagged human Tim3-ECD dimer
The assay can be described thus: SPR, Ab captured, dimer Tim3 (avidity).

The target in assay [17] is T6, Tim3-ECD-His-Biotin. As to the kind of experiment: ELISA on streptavidin-captured Tim3-ECD-His-Biotin.
Assay [18] addresses T7, full-length human Tim3 on cells (CHO-K1 …). As to the kind of experiment: cell ELISA on CHO-K1 cells with full-length human Tim3.
In assay [19] the target is T8, monomeric human Tim3-ECD. As to the kind of experiment: SPR BIAcore B4000, Ab captured on anti-mouse IgG, 25 C.
In assay [20] the target is T6, Tim3-ECD-His-Biotin. The assay can be described thus: ELISA on human Tim3 (values in relation to the samples max value).
The target of assay [21] is T7, full-length human Tim3 on cells (CHO-K1 …). The assay can be described thus: cellular ELISA on CHO-TIM3 (values in relation to the samples max value).
Assay [22] addresses T9, huFc fused dimeric human Tim3-ECD. The assay can be described thus: SPR BIAcore B4000, Ab captured on anti-mouse IgG, 25 C, dimeric antigen (avidity).
The target of a further assay is T10, monomeric cyno Tim3-ECD (cynomolgus, UniProt A0A2K5U3G7 22-195).
T10 construct: extracellular domain; also called cyTim3; cynomolgus Tim3
T10 sequence: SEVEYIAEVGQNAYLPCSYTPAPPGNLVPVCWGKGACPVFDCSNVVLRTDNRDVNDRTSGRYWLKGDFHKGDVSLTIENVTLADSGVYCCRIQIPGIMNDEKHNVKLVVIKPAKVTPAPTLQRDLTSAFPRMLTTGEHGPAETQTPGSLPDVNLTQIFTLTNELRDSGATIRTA
As to the kind of experiment: SPR BIAcore B4000, Ab captured on anti-mouse IgG, 25 C.

Where “and” joins values, the source holds several entries; their conditions need not be identical. Equal entries are not always repeated. Where two headings read alike, the source gives them in different places.

B1: chimeric PD1-0103 (antibody, human IgG1, V domains shown)
VH: EVILVESGGGLVKPGGSLKLSCAASGFSFSSYTMSWVRQTPEKRLDWVATISGGGRDIYYPDSVKGRFTISRDNAKNTLYLEMSSLMSEDTALYYCVLLTGRVYFALDSWGQGTSVTVSS
VL: KIVLTQSPASLPVSLGQRATISCRASESVDTSDNSFIHWYQQRPGQSPKLLIYRSSTLESGVPARFSGSGSRTDFTLTIDPVEADDVATYYCQQNYDVPWTFGGGTKLEIK
Turning to B1, the “EC50 of IFN-gamma secretion in MLR, donors D2 + D6” value in assay [1] is 7.7 nM; in assay [2] it was 6.5 nM; in [3], 6 nM. Besides, in [4], the “EC50 of IFN-gamma secretion in MLR, donors D1 + D3” value turned out to be 5.7 nM. The “EC50 of IFN-gamma secretion in MLR, donors D2 + D4” value in assay [4] was 5.7 nM. For the same molecule, the values for the EC50 in [5] and in [6] were 0.2 nM and 0.12 nM, respectively. Moreover, the figures for the binding result in assay [7] and in [9] were “no binding” and “no binding (tested: about 20 nM)”, respectively. Moreover, the figures for the Kd in the assay with human PD1-ECD [8], in the assay with human PD1-ECD [10] and with human PD1-ECD [12] were 0.8 nM, 2 nM and 0.8 nM, respectively. In the assay with human PD1-ECD [8], the koff (commonly the rate constant with which the complex falls apart) was 0.000307 s⁻¹. Besides, the association rate constant (kon) (commonly the second-order rate constant of association) with human PD1-ECD [8] was determined as 386000 M⁻¹ s⁻¹. Also, in [11], the half-maximal inhibitory concentration (IC50) (in general, the concentration that inhibits the measured activity by half) was 1.35 nM.

B2: Tim3_0016 variant (0018) (antibody, V domains shown)
VH: QVTLKESGPGILQPSQTLSLTCSFSGFSLSTSGMSVGWIRQPSGKGLEWLAHIWLNDDVFFNPALKRRLTISKDTSNNQVFLQIASVVTADTATYYCVRANGYLYALDYWGQGISVTVSS
VL: QIVLTQSPAIMSASPGQKVTITCSASSSVNYTQWYQQKLGSSPKLWIYDAFKLAPGVPARFSGSGTGTSYSLTISSMEAEDAASYFCHQWSSYPWTFGGGTKLEIK
notes: Mouse monoclonal antibody; also called Tim3_0018; Tim3 0018
For B2, the Inflexion point with Tim3-ECD-His-Biotin [13] amounted to 15.3 ng/mL; in assay [14] it was 29.4 ng/mL. Besides, the Kd turned out to be 3.4 nM in the assay with monomeric human Tim3-ECD [15], 1.1 nM in [16], 3.4 nM in the assay with monomeric human Tim3-ECD [19] and 1.11 nM in assay [22]. Also, the concentration for a half-maximal effect (EC50) (in general, the concentration at which the effect is half-maximal) is 0.56 nM and 0.094 µg/mL with Tim3-ECD-His-Biotin [17]; 0.52 nM and 0.087 µg/mL in [18]; 0.0151 µg/mL with Tim3-ECD-His-Biotin [20]; 0.0264 µg/mL in assay [21].

B3: Tim3_0022 (antibody, V domains shown)
VH: EVQLQESGPSLVKPSQTLSLTCSVTGDSIASAYWNWIRKFPGNKLEYMGYINYSGSTYYNPSLKSRISITRDTSQNQYYLQLNSVTTEDTATYYCVTGDYFDYWGRGTTLTVSS
VL: DIQMTQSPSSLSAYLGGKVTITCKARQDVRKNIGWYQHKPGKGPRLLIWYTSTLQSGIPSRFSGSGSGRDYSFNINNLEPEDIATYYCLQYDNLPFTFGTGTKLEIR
B3 came in with a Kd in the assay with monomeric cyno Tim3-ECD of 28.4 nM.

The values above are taken from patent US20190322748A1 (Hoffmann-La Roche, published 2019).
